Results on 1 molecule are retold here after patent US20150299272A1 (UNIVERSITY OF NEWCASTLE UPON TYNE, published 2015).

Series [1] concerns the molecule itself. Description: Superdex 200 gel filtration (self-association). On the technique in general: Size exclusion chromatography separates by hydrodynamic size, large species first.
The target of series [2] is Caf1-6His NT + Spacer linking peptide (Yersinia pestis). In words: co-expression in E. coli, western blot of partly heat-dissociated polymer. Background: In western blotting, separated proteins are transferred to a membrane and probed.

B1: Caf1 WT (naturally occurring Caf1 polypeptide monomer from Yersinia pestis; fraction 1 antigen polymer) (other)
chain: ADLTASTTATATLVEPARITLTYKEGAPITIMDNGNIDTELLVGTLTLGGYKTGTTSTSVNFTDAAGDPMYLTFTSQDGNNHQFTTKVIGKDSRDFDISPKVNGENLVGDDVVLATGSQDFFVRSIGSKGGKLAAGKYTDAVTVTVSNQ
As for B1, the binding result in series [1] and in series [2] was “binds” each time.
